Assay results taken from the supplement of paper PMC7877785.
± gives the uncertainty stated by the source.

Test: self-splicing fitness, log relative to wild type (ln ratio); higher = more splicing; Tetrahymena group I intron in knt gene, E. coli kanamycin selection, DiMSum; sequences stand for … in CUCUCU…GGAGGGAAAAGUUAUCAGGCAUGCACCUGGUAGCUAGUCUUUAAACCAAUAGAUUGCAUCGGUUUAAAAGGCAAGACCGUCAAAUUGCGGGAAAGGGGUCAACAGCCGUUCAGUACCAAGUCUCAGGGGAAACUUUGAGAUGGCCUUGCAAAGGGUAUGGUAAUAAGCUGACGGACAUGGUCCUAACCACGCAGCCAAGUCCUAAGUCAACAGAUCUUCUGUUGAUAUGGAUGCAGUUCACAGACUAAAUGUCGGUCGGGGAAGAUGUAUUCUUCUCAUAAGAUAUAGUCGGACCUCUCCUUAAUGGGAGCUAGCGGAUGAAGUGAUGCAACACUGGAGCCGCUGGGAACUAAUUUGUAUGCGAAAGUAUAUUGAUUAGUUUUGGAGUACUCGUGGUCG
Outline: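 The eight P1ex-region nucleotides of an intron in the knt kanamycin-resistance gene on pET-22b(+) were all randomised and the library put into E. coli BL21(DE3). Six replicate transformations were grown overnight at 37°C or 30°C on LB agar with or without 25 μg/mL kanamycin, together with 100 μg/mL carbenicillin, 50 μM IPTG and 0.2% rhamnose. Colonies were pooled and amplicon-sequenced on an Illumina HiSeq 2500. Fitness from DiMSum is the error-weighted combination of wild-type-normalised replicate fold changes, kanamycin over none.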

ACAGAGCAAUAUUACGCUAC
self-splicing fitness (ln) (30 °C): -3.21 ± 0.43

ACAGAGCAAUAUUACGCUCG
self-splicing fitness (ln) (30 °C): -1.05 ± 0.13 | self-splicing fitness (ln) (37 °C): -1.12 ± 0.2

ACAGAGCAAUAUUACGCUGA
self-splicing fitness (ln) (30 °C): -3.27 ± 0.19 | self-splicing fitness (ln) (37 °C): -1.47 ± 0.16

ACAGAGCAAUAUUACGGAAC
self-splicing fitness (ln) (37 °C): -1.97 ± 0.36

ACAGAGCAAUAUUACGGGCC
self-splicing fitness (ln) (30 °C): -1.79 ± 0.29

ACAGAGCAAUAUUACGGGGG
self-splicing fitness (ln) (30 °C): -3.7 ± 0.19 | self-splicing fitness (ln) (37 °C): -2.31 ± 0.2

ACAGAGCAAUAUUACGGGUA
self-splicing fitness (ln) (30 °C): -2.47 ± 0.36 | self-splicing fitness (ln) (37 °C): -3 ± 0.31

ACAGAGCAAUAUUACGGUAG
self-splicing fitness (ln) (30 °C): -2.61 ± 0.13 | self-splicing fitness (ln) (37 °C): -2.49 ± 0.18

ACAGAGCAAUAUUACGGUUC
self-splicing fitness (ln) (30 °C): -3.68 ± 0.23 | self-splicing fitness (ln) (37 °C): -2.16 ± 0.22

ACAGAGCAAUAUUACGGUUG
self-splicing fitness (ln) (30 °C): -3.68 ± 0.24 | self-splicing fitness (ln) (37 °C): -3.02 ± 0.22

ACAGAGCAAUAUUACGUGGC
self-splicing fitness (ln) (30 °C): -3.8 ± 0.25 | self-splicing fitness (ln) (37 °C): -2.31 ± 0.32

ACAGAGCAAUAUUACGUUCA
self-splicing fitness (ln) (30 °C): -2.1 ± 0.14 | self-splicing fitness (ln) (37 °C): -2.33 ± 0.2

ACAGAGCAAUAUUACGUUGA
self-splicing fitness (ln) (30 °C): -2.69 ± 0.21 | self-splicing fitness (ln) (37 °C): -3.28 ± 0.27

ACAUAGCAAUAUUACGAACA
self-splicing fitness (ln) (30 °C): 0.105 ± 0.14 | self-splicing fitness (ln) (37 °C): -1.05 ± 0.17

ACAUAGCAAUAUUACGAGAU
self-splicing fitness (ln) (30 °C): -4.08 ± 0.29 | self-splicing fitness (ln) (37 °C): -2.66 ± 0.26

ACAUAGCAAUAUUACGAGUC
self-splicing fitness (ln) (30 °C): -3.91 ± 0.27 | self-splicing fitness (ln) (37 °C): -3.33 ± 0.25

ACAUAGCAAUAUUACGAUUA
self-splicing fitness (ln) (30 °C): -0.756 ± 0.1 | self-splicing fitness (ln) (37 °C): -0.602 ± 0.14

ACAUAGCAAUAUUACGCAAU
self-splicing fitness (ln) (30 °C): -3.57 ± 0.21 | self-splicing fitness (ln) (37 °C): -2.67 ± 0.24

ACAUAGCAAUAUUACGCCAG
self-splicing fitness (ln) (30 °C): -2.65 ± 0.18 | self-splicing fitness (ln) (37 °C): -1.5 ± 0.21

ACAUAGCAAUAUUACGCCCC
self-splicing fitness (ln) (30 °C): -1.98 ± 0.39 | self-splicing fitness (ln) (37 °C): -0.782 ± 0.41

ACAUAGCAAUAUUACGGAGC
self-splicing fitness (ln) (37 °C): -0.767 ± 0.15

ACAUAGCAAUAUUACGGAUC
self-splicing fitness (ln) (30 °C): -3.05 ± 0.15 | self-splicing fitness (ln) (37 °C): -1.21 ± 0.12

ACAUAGCAAUAUUACGGAUG
self-splicing fitness (ln) (30 °C): -1.77 ± 0.12 | self-splicing fitness (ln) (37 °C): -1.6 ± 0.14

ACAUAGCAAUAUUACGGCCG
self-splicing fitness (ln) (30 °C): -0.333 ± 0.15 | self-splicing fitness (ln) (37 °C): 0.385 ± 0.24

ACAUAGCAAUAUUACGGCUA
self-splicing fitness (ln) (30 °C): -0.773 ± 0.055 | self-splicing fitness (ln) (37 °C): -0.391 ± 0.068

ACAUAGCAAUAUUACGGGGC
self-splicing fitness (ln) (30 °C): -2.87 ± 0.12 | self-splicing fitness (ln) (37 °C): -1.81 ± 0.13

ACAUAGCAAUAUUACGGGGG
self-splicing fitness (ln) (30 °C): -3.09 ± 0.14 | self-splicing fitness (ln) (37 °C): -2.58 ± 0.2

ACAUAGCAAUAUUACGGUGA
self-splicing fitness (ln) (30 °C): -0.929 ± 0.066 | self-splicing fitness (ln) (37 °C): -0.247 ± 0.086

ACAUAGCAAUAUUACGUCCG
self-splicing fitness (ln) (30 °C): -1.62 ± 0.11 | self-splicing fitness (ln) (37 °C): -1.2 ± 0.14

ACAUAGCAAUAUUACGUGAG
self-splicing fitness (ln) (30 °C): -0.863 ± 0.036 | self-splicing fitness (ln) (37 °C): -0.206 ± 0.062

ACAUAGCAAUAUUACGUUGC
self-splicing fitness (ln) (30 °C): -4.02 ± 0.33 | self-splicing fitness (ln) (37 °C): -2 ± 0.28

ACCAAGCAAUAUUACGACGA
self-splicing fitness (ln) (30 °C): -1.11 ± 0.12 | self-splicing fitness (ln) (37 °C): -0.623 ± 0.13

ACCAAGCAAUAUUACGCGGA
self-splicing fitness (ln) (30 °C): -1.11 ± 0.068 | self-splicing fitness (ln) (37 °C): -0.537 ± 0.077

ACCAAGCAAUAUUACGCGUA
self-splicing fitness (ln) (30 °C): -1.11 ± 0.075 | self-splicing fitness (ln) (37 °C): -0.487 ± 0.075

ACCAAGCAAUAUUACGCUUC
self-splicing fitness (ln) (30 °C): -3.27 ± 0.15 | self-splicing fitness (ln) (37 °C): -1.71 ± 0.12

ACCAAGCAAUAUUACGGAAC
self-splicing fitness (ln) (30 °C): -3.63 ± 0.21 | self-splicing fitness (ln) (37 °C): -1.99 ± 0.2

ACCAAGCAAUAUUACGGACC
self-splicing fitness (ln) (30 °C): -0.368 ± 0.098 | self-splicing fitness (ln) (37 °C): -0.214 ± 0.12

ACCAAGCAAUAUUACGGCAU
self-splicing fitness (ln) (30 °C): -0.931 ± 0.049 | self-splicing fitness (ln) (37 °C): -0.0435 ± 0.066

ACCAAGCAAUAUUACGGGCA
self-splicing fitness (ln) (30 °C): -0.376 ± 0.06 | self-splicing fitness (ln) (37 °C): -0.0824 ± 0.072
